The values that follow come from PMC6316451.

For orientation: stoichiometry N means a count of units in the complex or per binding partner.

Read-outs that look alike come from different tables or passages of the source.

Assay [1] deals with HIV-1 capsid protein CA N21C/A22C (HIV-1 NL4-3). The assay is described as follows: cross-linking; engineered disulfide cross-links read by non-reducing SDS-PAGE; after assembly: purified protein at 1 mg/mL (also about 4 and 10 mg/mL) dialyzed into 50 mM Tris-HCl, pH 8.0, 1 M NaCl overnight at 4 °C, no reductant.
Assay [2] has the same target. The description is as above. The source holds these as a separate data set.

For the substance “HIV-1 capsid protein CA N21C/A22C (natural protein)”, the stoichiometry N worked out at 6 in assay [1] and 5 in assay [2].
